Source: patent US20240287489A1, “CHITINOLYTIC ENZYME-BASED PLANT PROTECTION AGENTS” (GLOBACHEM NV, priority 2021, published 2024)

Tests used:
Septoria tritici = assay: Minimum inhibitory concentration (MIC) test on fungal pathogens; type: cell-based; set-up: key: xx = no growth/strong inhibition; x = small inhibition; settings: start concentration 100 μg/ml
[1] = Enzyme kinetics on chitin powder (Michaelis-Menten non-linear fit); type: biochemical; settings: 2 μM enzyme, 0-150 mg/ml chitin powder
Protocol: Enzyme kinetics were determined using chitin powder as a substrate and the optimum enzyme to substrate ratio could be determined as well as Vmax and Km values. The concentrations of chitin powder varied
from 0 mg/ml up to 150 mg/ml while amount of enzyme was kept constant (2 μM). The initial velocities (V0) versus substrate concentration ([S]) were plotted as Lineweaver-Burk and Michaelis-Menten curves using GraphPad software (FIG. 7).
Maximum reaction velocities (Vmax) and Michaelis-Menten constants (Km) were determined using a non-linear fit Michaelis-Menten model (Table 4.6). Thereby, optimum enzyme-substrate ratios were determined that would allow a maximization of substrate conversion rates. Furthermore, the Km indicated the reciprocal enzyme-substrate affinity for C1-C5. Higher Km values reflect an overall lower affinity and thus reduced conversion efficiencies. […] In comparison, higher Km values for C2 and C5 reflected an overall lower affinity to insoluble chitin.
Enzyme samples were incubated at different temperature (10-60° C., 10° C. increment) and pH (4-11, increment 1) using different buffer systems (Acetate, Tris-HCl, MES, total molar concentration 100 mM), as well as NaCl content (0, 1. 2.5, 5, 10 and 20% w/v) to determine optimum reaction conditions. All experiments were carried out at 1.0 ml scale using 2 μM of the respective enzymes and a 5% (wv) suspension of chitin powder extracted from shrimp shells (˜400.000 g/mol; Carl, Roth) in 100 mM MAT buffer. For the determination of the substrate specificity, chitin powder (5% w/v), glycol chitin (10% v/v), colloidal chitin (5% w/v), chitosan [DA 15-25%, medium molecular weight, Sigma-Aldrich] (5% w/v) and microcrystalline cellulose powder (Sigma Aldrich) (5% w/v) were investigated, respectively. The effect of several potential co-factors on activity was elucidated at a concentration of 1 mM. Additionally, the effect of detergents [SDS 0.5% (w/v), Tween-20 and Triton X-100 both at 0.5% (v/v)] and chemicals (Imidazole 100 mM, EDTA 1 mM) on enzymatic activity was assessed. Samples were incubated in a thermomixer for 16 h at 900 rpm. After incubation, samples were analyzed using the enzyme assay. Thermostability was assessed after incubation of recombinant chitinases at 60° C. for different durations followed by the quantification of residual enzyme activity under standard assay conditions.

[2] = Reducing end assay, specific chitinase activity of expression and purification fractions; type: biochemical; settings: chitin powder, 16 h at 30° C.
Protocol: Integrity and correctness of the constructs was confirmed by colony PCR and Sanger-sequencing. All constructs were transformed into E. coli BL21 and expressed recombinantly. Expression levels of the target enzymes were determined densitometrically after immunoblot detection for cytosolic and secreted expression. Enzymatic activity was determined for all samples using a reducing end assay. […] Furthermore, it was confirmed that these enzymes are efficiently released into the culture supernatant, rendering cell lysis unnecessary for future production cycles.
A two-step purification of the selected recombinant enzymes with PelB signal peptide form the culture supernatant was carried out with an initial ammonium sulfate precipitation step and a sequential IMAC purification of the solubilized protein precipitate. Elution fractions were pooled and an SDS-PAGE and immunoblot was prepared loading the same volume for each sample (FIG. 4). Expression levels of the five chitinases varied largely, and C1 was detected in much greater abundance relative to the others. […] The observed molecular weight of all enzymes in SDS-PAGE gel and immunoblot was not in accordance with the expected theoretical molecular weight taking into account that a 6×His tag was added C-terminally to the enzymes and in general, bands for all enzymes were detected at a higher molecular weight. For all samples, unspecific bands could detected at ˜25 kDa and ˜50 kDa after IMAC purification, most likely representing host cell protein-contaminations. The amount of protein in the culture media, ammonium sulfate concentrates and the final dialyzed elution fractions was determined using the BCA assay and the same fractions were incubated with chitin powder for 16 h at 30° C. followed by the quantification of reducing sugars to measure specific chitinase activity (Table 4.2). Thereby it was confirmed that all target enzymes were successfully enriched during purification according to the specific activity.
For the determination of enzymatic activity of recombinant chitinases, a reducing end assay was carried out [Svein et al., Carbohydr Polym, 2004. 56(1): p. 35-39.]. Fractions containing chitinases were incubated with 5% (w/v) chitin powder extracted from shrimp shells (˜400.000 g/mol; Carl Roth) in MAT buffer for 2 h in an overhead shaker at ambient temperature (standard conditions). Samples were centrifuged at 13000×g for 2 min and 40 μl of the supernatant was mixed with 40 μl 0.5 M NaOH and 40 μL of a reagent containing 1.5 mg/ml 3-Methyl-2-benzothiazolinonhydrazon and 0.75 mg/ml Dithiothreitol. Samples were incubated at 80° C. for 15 min and then thoroughly mixed with 80 μl of 0.5% (w/v) FeNH4(SO4)2)×12H2O, 0.5% (w/v) sulfamic acid and 0.25 M HCl. After cooling down to room temperature, 100 μl of the samples were measured at 620 nm. A calibration curve of N-acetyl-glucosamine was constructed freshly for each measuring cycle. One unit [U] was defined as the amount of enzyme required to release 1 μmol of reducing sugars per hour.

B1: Chitinase 5: chitinolytic enzyme from P. orarium, SEQ ID NO: 5, recombinant with PelB signal peptide and 6×His tag (protein, listed as Photobacterium orarium)
chain: MAMGWSQININGVQKWEEAYSLNVDAANEIITIGAADTAGALYASQSLLQLVDGNKVPEVQITDAPRFAYRGFSVDAVRNFRTKDAIIQLLDQMAAFKLNKLHLRLADDEGWRIEIAGLPELTDVGATRCHDPEEKACILPFLGAGPDGSPESNGYYTATDYQDILSHAAALNIEVVPEIDIPGHAHAAIKAMEARYDHYAAQGNMAEANKYLLTDFNDTTQYLSVQMFTDNAINVCMESSYNFVDAVVSGLVSLHQGVQPLKTFHFGGDEIAGAWINSPACQDFIANNTDGVHSVSDLSRYFVERISVITANYGLDMAGWEDGLMHDGQVYPRSQMANNQLWGNAWQNIWEWGVADRAYNLANNDYKVVYNHATHLYFDHPYEPDPNERGYYWAPRFTDTRKTFGFMPDDVFANADFTRAGAPITKAEVVASAGVKKLLKPENVLGLQGSLWAEAVRTEDQFEGMIFPRVLGLAERAWHTATWEANDNAGIALDETGRNADYNHFANLLGQKVLPKLEQAGIAFNLPVPGGVIENGVLQANSTFPGLTIEYSTDQGTSWQSYDHLNPPAVAAGVQLRTVSGQRTSRVTTVNIE
modifications: PelB signal peptide; 6xHis tag; Chitinase 5
growth inhibition of Septoria tritici in the MIC test (Septoria tritici): xx
Km (enzyme-substrate affinity) [1]: 36.0 mg/mL
Vmax (maximum reaction velocity) [1]: 89.5 U/ml
Specific activity ([2]; Culture supernatant fraction): 0.03 U/mg
Specific activity ([2]; Dialysed elution fraction after IMAC): 6.67 U/mg
